Experiments:
[1] = molecular target: T1, human GFRAL, full length, expressed on HEK293 / HEK293T cells (human, UniProt Q6UXV0 20-394); experiment: radio-ligand competition: unlabeled GDF15 displacing 0.15 nM ^125I-GDF15 from HEK293-GFRAL cells
T1 construct: Its signal peptide is printed as the lowercase residues 1-19, and the mature protein starts at Q20; also called hGFRAL; HEK293-GFRAL cells
T1 sequence: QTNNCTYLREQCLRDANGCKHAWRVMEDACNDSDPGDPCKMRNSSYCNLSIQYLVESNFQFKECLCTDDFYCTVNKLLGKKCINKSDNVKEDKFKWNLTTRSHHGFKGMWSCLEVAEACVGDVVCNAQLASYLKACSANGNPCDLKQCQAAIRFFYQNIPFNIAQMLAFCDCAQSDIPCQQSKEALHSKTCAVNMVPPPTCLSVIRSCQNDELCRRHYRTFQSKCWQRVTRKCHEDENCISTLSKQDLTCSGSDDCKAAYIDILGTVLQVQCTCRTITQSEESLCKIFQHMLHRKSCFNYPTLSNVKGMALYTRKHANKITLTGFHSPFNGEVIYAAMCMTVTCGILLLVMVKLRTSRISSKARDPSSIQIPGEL
Procedure: HEK293-GFRAL cells were suspended in ice-cold binding buffer (Dulbecco's modified Eagle's medium containing 2 mg/ml BSA, and 25 mM HEPES, pH 7.4) and transferred to pre-wetted Multiscreen filter plates (96-well Dura PVDF 0.65 um Opaque; Millipore), which were kept on ice. Typically, 1×10⁵ of cells in 25 μl were used per well. […] Plates were then transferred to a vacuum filtration manifold (Pall Corporation) and supernatants were filtered. Each well was washed four times with 100 μl of ice cold binding buffer. Bound ¹²⁵I-GDF15 (CPM) were measured by scintillation counting (150 μl/well of EcoLite, MP Biomedicals, Santa Anna, Calif.) using MicroBeta2 Plate Counter (Perkin Elmer). The concentrations (in nM) of unlabeled inhibitors used in this experiment are as follows. GDF15 and GFRAL-Fc: 100, 25, 6.25, 1.56, 0.39, 0.098, 0.024, 0.006; 1M03: 1000, 250, 62.5, 15.63, 3.91, 0.98, 0.24, 0.06.

[2] = molecular target: T1, human GFRAL, full length, expressed on …; experiment: cell-based or functional assay
[3] = molecular target: T2, rat GFRAL, expressed on HEK293T cells (rat, UniProt D3ZB94 20-394); experiment: cell-based or functional assay
T2 sequence: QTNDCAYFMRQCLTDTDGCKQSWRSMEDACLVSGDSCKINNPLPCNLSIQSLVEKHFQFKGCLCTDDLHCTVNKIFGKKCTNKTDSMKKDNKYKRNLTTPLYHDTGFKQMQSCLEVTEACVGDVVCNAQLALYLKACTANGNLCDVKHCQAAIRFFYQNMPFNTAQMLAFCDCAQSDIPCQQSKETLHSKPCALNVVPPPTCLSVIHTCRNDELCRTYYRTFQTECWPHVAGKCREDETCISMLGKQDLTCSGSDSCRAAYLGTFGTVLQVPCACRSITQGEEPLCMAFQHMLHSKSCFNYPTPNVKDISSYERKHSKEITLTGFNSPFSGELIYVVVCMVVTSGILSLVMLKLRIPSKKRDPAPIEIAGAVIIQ

[4] = molecular target: T3, mouse GFRAL, expressed on HEK293T cells (mouse, UniProt Q6SJE0 20-393); experiment: cell-based or functional assay
T3 sequence: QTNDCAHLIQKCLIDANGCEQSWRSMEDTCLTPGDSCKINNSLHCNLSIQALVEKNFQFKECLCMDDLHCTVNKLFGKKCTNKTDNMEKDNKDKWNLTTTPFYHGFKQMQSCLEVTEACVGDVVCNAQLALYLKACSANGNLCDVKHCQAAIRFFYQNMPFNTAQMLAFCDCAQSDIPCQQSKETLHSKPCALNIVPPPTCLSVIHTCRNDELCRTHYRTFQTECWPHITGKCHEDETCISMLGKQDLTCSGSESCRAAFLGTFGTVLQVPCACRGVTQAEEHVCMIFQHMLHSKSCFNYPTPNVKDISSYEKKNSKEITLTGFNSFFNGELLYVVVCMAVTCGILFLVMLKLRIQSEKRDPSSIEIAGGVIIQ

[5] = molecular target: T4, cynomolgus monkey GFRAL, expressed on HEK293T cells (cynomolgus monkey, UniProt Q6UXV0 19-394 (human entry)); experiment: cell-based or functional assay
T4 chain: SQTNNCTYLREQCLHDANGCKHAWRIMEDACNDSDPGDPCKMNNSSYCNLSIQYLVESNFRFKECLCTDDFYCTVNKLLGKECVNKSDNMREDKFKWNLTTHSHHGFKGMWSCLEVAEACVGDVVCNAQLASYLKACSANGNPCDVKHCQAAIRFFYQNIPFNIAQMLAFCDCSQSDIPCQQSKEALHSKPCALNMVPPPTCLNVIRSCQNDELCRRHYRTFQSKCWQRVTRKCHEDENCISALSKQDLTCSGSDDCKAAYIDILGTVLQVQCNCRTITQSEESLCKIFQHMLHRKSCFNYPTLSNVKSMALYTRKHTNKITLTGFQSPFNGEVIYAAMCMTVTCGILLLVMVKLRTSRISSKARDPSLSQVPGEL

[6] = molecular target: T1, human GFRAL, full length, expressed on …; experiment: radioligand saturation binding to HEK293 cells expressing human GFRAL, equilibrium, 2 hr at 4 °C
Procedure: HEK293 or HEK293-human GFRAL cells were suspended in ice-cold binding buffer (Dulbecco's modified Eagle's medium containing 2 mg/ml BSA, and 25 mM HEPES, pH 7.4) and transferred to pre-wetted Multiscreen filter plates (96-well Dura PVDF 0.65 um Opaque; Millipore), which were kept on ice. Typically, 1×10⁵ of cells in 25 μl were used per well. Cells were incubated with 25 μl of binding buffer containing serial dilution of ¹²⁵I-GDF15 (2 fold serial dilution from 1000 pM to 0.1 pM final reaction concentration) with or without unlabeled GDF15 (500 nM final reaction concentration) for 2 hr at 4° C. Plates were then transferred to a vacuum filtration manifold (Pall Corporation) and supernatants were filtered. Each well was washed four times with 100 μl of ice cold binding buffer. Bound ¹²⁵I-GDF15 were measured by scintillation counting (150 μl/well of EcoLite, MP Biomedicals, Santa Anna, Calif.) using MicroBeta2 Plate Counter (Perkin Elmer). Bound (molecule/cell) was calculated according to a standard curve correlating CPM and molarity of ¹²⁵I-GDF15.
To determine the binding affinity of GDF15 to GFRAL, radio-labeled ¹²⁵I-GDF15 was used to bind HEK293 cells expressing human GFRAL (FIG. 2A) under equilibrium conditions. […] Excess amount of unlabeled GDF15 (500 nM) reduced the ¹²⁵I-GDF15-GFRAL binding to ‘non-specific’ background level. […]

B1: mature human GDF15 (112 amino acids) (ligand)
chain: ARNGDHCPLGPGRCCRLHTVRASLEDLGWADWVLSPREVQVTMCIGACPSQFRAANMHAQIKTSLHRLKPDTVPAPCCVPASYNPMVLIQKTDTGVSLQTYDDLLAKDCHCI
notes: also called hGDF15; unlabeled GDF15
IC50 [1]: 400 pM
EC50 of Elk/GAL4-luciferase reporter in HEK293T cells co-transfected with human GFRAL and human RET9 [2]: 2.1 pM
EC50 of Elk/GAL4-luciferase reporter in HEK293T cells co-transfected with rat GFRAL and RET9 [3]: 6.2 pM
EC50 of Elk/GAL4-luciferase reporter in HEK293T cells co-transfected with mouse GFRAL and RET9 [4]: 1.5 pM
EC50 of Elk/GAL4-luciferase reporter in HEK293T cells co-transfected with cynomolgus monkey GFRAL and RET9 [5]: 5.2 pM

B2: ^125I-GDF15 (radio-iodinated mature human GDF15) (ligand)
chain: ARNGDHCPLGPGRCCRLHTVRASLEDLGWADWVLSPREVQVTMCIGACPSQFRAANMHAQIKTSLHRLKPDTVPAPCCVPASYNPMVLIQKTDTGVSLQTYDDLLAKDCHCI
modifications: 125I label, site not stated
notes: Labelled form of m1; also called radio-labeled GDF15
Kd [6]: ~200 pM

— patent publication US20170299608A1 (NGM BIOPHARMACEUTICALS, published 2017)
